Patent US20160047810A1 (INSTITUT PASTEUR, published 2016)
Numbering of substitutions follows the chain as printed.

How the values were obtained:
[1] = target: T1, FtsZ (purified, from pET11a-ftsZ), P0A9A6
T1 chain: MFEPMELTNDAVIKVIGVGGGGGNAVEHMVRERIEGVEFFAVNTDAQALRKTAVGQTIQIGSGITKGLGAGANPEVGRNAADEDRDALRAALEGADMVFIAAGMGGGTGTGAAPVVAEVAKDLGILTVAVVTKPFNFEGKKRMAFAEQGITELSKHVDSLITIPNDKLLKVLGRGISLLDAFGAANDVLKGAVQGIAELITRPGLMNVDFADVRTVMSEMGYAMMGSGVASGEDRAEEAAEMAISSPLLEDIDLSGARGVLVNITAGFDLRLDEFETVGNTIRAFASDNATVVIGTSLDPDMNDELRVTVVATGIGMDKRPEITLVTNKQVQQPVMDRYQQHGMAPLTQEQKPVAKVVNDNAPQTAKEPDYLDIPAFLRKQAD

[2] = target: the molecule itself; assay: self-association, polymerization assay, ultracentrifugation and western blot

B1: E. coli K12 Lop1-H6 (protein)
chain: MQSVTPTSQYLKALNEGSHQPDDVQKEAVSRLEIIYQELINSTPPAPRTSGLMARVGKLWGKREDTKHTPVRGLYMWGGVGRGKTWLMDLFYQSLPGERKQRLHFHRFMLRVHEELTALQGQTDPLEIIADRFKAETDVLCFDEFFVSDITDAMLLGGLMKALFARGITLVATSNIPPDELYRNGLQRARFLPAIDAIKQHCDVMNVDAGVDYRLRTLTQAHLWLSPLHDETRAQMDKLWLALAGGKRENSPTLEINHRPLATMGVENQTLAVSFTTLCVDARSQHDYIALSRLFHTVMLFDVPVMTRLMESEARRFIALVDEFYERHVKLVVSAEVPLYEIYQGDRLKFEFQRCLSRLQEMQSEEYLKREHLAG
- FtsZ polymer proteolysis assay (ultracentrifugation, western blot) [1]: The FtsZ polymers incubation with Lop1 lead to their slight degradation at t=3 min in an ATP-dependent manner

B2: E. coli K12 Lop1K84A-H6 (protein)
chain: B1 chain with K84A
- FtsZ polymer proteolysis assay (ultracentrifugation, western blot) [1]: no degradation of FtsZ polymers was observed with LOp1 K84A

B3: FtsZ (purified, from pET11a-ftsZ) (other)
chain: T1 chain
notes: Used as GTP-induced polymers in the proteolysis assays; also called FtsZ polymers; Z-ring
- binding result [2]: binds

B4: E. coli K12 Lop1Δ1-59-H6 (protein)
chain: WGKREDTKHTPVRGLYMWGGVGRGKTWLMDLFYQSLPGERKQRLHFHRFMLRVHEELTALQGQTDPLEIIADRFKAETDVLCFDEFFVSDITDAMLLGGLMKALFARGITLVATSNIPPDELYRNGLQRARFLPAIDAIKQHCDVMNVDAGVDYRLRTLTQAHLWLSPLHDETRAQMDKLWLALAGGKRENSPTLEINHRPLATMGVENQTLAVSFTTLCVDARSQHDYIALSRLFHTVMLFDVPVMTRLMESEARRFIALVDEFYERHVKLVVSAEVPLYEIYQGDRLKFEFQRCLSRLQEMQSEEYLKREHLAG
- FtsZ polymer proteolysis assay (ultracentrifugation, western blot) [1]: incubation of FtsZ polymers with Lop1Δ1-59 in the absence of ATP caused its significant degradation (t=1 min, no FtsZ signal in the soluble fraction)

B5: K12 H6-Lop1Δ1-59Δ303-375 (protein)
chain: WGKREDTKHTPVRGLYMWGGVGRGKTWLMDLFYQSLPGERKQRLHFHRFMLRVHEELTALQGQTDPLEIIADRFKAETDVLCFDEFFVSDITDAMLLGGLMKALFARGITLVATSNIPPDELYRNGLQRARFLPAIDAIKQHCDVMNVDAGVDYRLRTLTQAHLWLSPLHDETRAQMDKLWLALAGGKRENSPTLEINHRPLATMGVENQTLAVSFTTLCVDARSQHDYIALSRLFHTVMLFD
- FtsZ polymer proteolysis assay (1 min at 30° C., western blot of the pellet) [1]: the 73aa C-terminal fragment of Lop1Δ1-59 was required for the proteolytic degradation of FtsZ polymers
